In the supplement of paper PMC10724198:
± gives the standard deviation of the averaged measurements.

Tested on: Saccharomyces cerevisiae
Assay: protein stability index of tFT-peptide fusion (C-terminal peptide) (PSI (0-1 scale)); higher = more stable (slower turnover)
Details: temperature: 30 C
Description: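 MPS profiling in S. cerevisiae of the yeast C-terminome library: the last 12 aa of each annotated ORF are fused to the C-terminus of a sfGFP-mCherry timer, after a GGGS linker. Cells are FACS-sorted into 8 mCherry/sfGFP bins and deep-sequenced. PSI runs from 0 (unstable) to 1 (stable); wild type and das1Δ backgrounds, two technical replicates each.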

[1] = genetic background: das1 deletion

Row | Sequence | protein stability index [1] | protein stability index (genetic background: wild type)
1 | HGNVFHIESICG [YLL047W C-terminal 12 aa] | 0.655 ± 0.053 | 0.737 ± 0.031
2 | HGRESANGISKQ [YLR374C C-terminal 12 aa] | 0.679 ± 0.015 | 0.65531 ± 0.00026
3 | HGTAKALAAAKK [RPL29 C-terminal 12 aa] | 0.7098 ± 0.0054 | 0.6697 ± 0.0058
4 | HIRKERTLYIYI [PIH1 C-terminal 12 aa] | 0.60684 ± 0.00034 | 0.351 ± 0.0044
5 | HKKEVVSKGDDY [MAP2 C-terminal 12 aa] | 0.6695 ± 0.0046 | 0.653 ± 0.026
6 | HLGKFFVKQKIL [ERP1 C-terminal 12 aa] | 0.696 ± 0.042 | 0.152 ± 0.0043
7 | HLSGSTIDTTVV [DSE1 C-terminal 12 aa] | 0.6624 ± 0.0029 | 0.685 ± 0.012
8 | HSDSADTHTHKH [MMT2 C-terminal 12 aa] | 0.693 ± 0.025 | 0.696 ± 0.029
9 | HSITEGSYIYIK [YOR062C C-terminal 12 aa] | 0.687 ± 0.062 | 0.676 ± 0.05
10 | HSVWSQSTINND [YML034C-A C-terminal 12 aa] | 0.725 ± 0.015 | 0.702 ± 0.066
11 | HVCVDVDVIVST [TRM12 C-terminal 12 aa] | 0.6505 ± 0.0056 | 0.6574 ± 0.001
12 | HVKDHQPGKPFI [YDR433W C-terminal 12 aa] | 0.689 ± 0.023 | 0.708 ± 0.063
13 | HYPSSDIRGDIL [YOR161C-C C-terminal 12 aa] | 0.6911 ± 0.0014 | 0.69973 ± 0.00023
14 | IAFPQRKYAIKA [RPL35A C-terminal 12 aa] | 0.299 ± 0.024 | 0.33 ± 0.01
15 | IASQNSLGWNEV [MSB2 C-terminal 12 aa] | 0.69667 ± 0.00047 | 0.693 ± 0.024
16 | ICYTFKHLVSHK [FRT2 C-terminal 12 aa] | 0.691 ± 0.016 | 0.6574 ± 0.0033
17 | IDEMYRGGISMN [AIM32 C-terminal 12 aa] | 0.693 ± 0.013 | 0.69 ± 0.024

Row | Sequence | protein stability index [1] | protein stability index (genetic background: wild type)
18 | IEAPQFYRYWSA [SWI3 C-terminal 12 aa] | 0.724 ± 0.033 | 0.706 ± 0.011
19 | IEEMLEIISGYA [RPC17 C-terminal 12 aa] | 0.5664 ± 0.0013 | 0.584 ± 0.008
20 | IEERLVAIAEQD [SCL1 C-terminal 12 aa] | 0.7091 ± 0.0065 | 0.7 ± 0.017
21 | IELIQNMNKESF [YOR131C C-terminal 12 aa] | 0.696 ± 0.03 | 0.692 ± 0.015
22 | IEQYLQTYGASA [URA5 C-terminal 12 aa] | 0.708 ± 0.011 | 0.695 ± 0.014
23 | IEVGADSYAEEF [TUB3 C-terminal 12 aa] | 0.689 ± 0.018 | 0.671 ± 0.014
24 | IEVGNGASVLIQ [TRS65 C-terminal 12 aa] | 0.692 ± 0.01 | 0.691 ± 0.023
25 | IFQEAIDKTVEI [YML082W C-terminal 12 aa] | 0.708 ± 0.0011 | 0.706 ± 0.029
26 | IGAPASGLRIRV [COP1 C-terminal 12 aa] | 0.693 ± 0.0074 | 0.69199 ± 5.7e-06
27 | IGGLKREAEASA [GDH2 C-terminal 12 aa] | 0.695 ± 0.041 | 0.719 ± 0.0075
28 | IHDFPKSHIVDF [IKI3 C-terminal 12 aa] | 0.7325 ± 0.0027 | 0.733 ± 0.025
29 | IIRPLVLKNFII [YDR371C-A C-terminal 12 aa] | 0.5029 ± 0.0013 | 0.116 ± 0.0054
30 | IIWEKRNPEQKI [ERG11 C-terminal 12 aa] | 0.702 ± 0.023 | 0.7138 ± 0.0069
31 | IKARNMKIDRTQ [COG4 C-terminal 12 aa] | 0.681 ± 0.018 | 0.695 ± 0.041
32 | IKGWFVNGQVPR [PEX17 C-terminal 12 aa] | 0.716 ± 0.0072 | 0.674 ± 0.029
33 | IKLEDAKGTHIK [RAD59 C-terminal 12 aa] | 0.695 ± 0.013 | 0.6411 ± 0.0032
34 | IKMIKELGNHRL [RMD6 C-terminal 12 aa] | 0.684 ± 0.0078 | 0.646 ± 0.026
